Assay results reported in paper PMC7615931 (Science (New York, N.Y.), 2024).

Legend:
cryo-EM structure = target: the molecule itself; test: cryo-EM structure
negative-staining EM = target: the molecule itself; test: negative-staining EM

B1: β-arrestin 2 (βarr2), wild-type, full-length (natural protein, UniProt P32120 1-420, looked up)
chain: MGEKPGTRVFKKSSPNCKLTVYLGKRDFVDHLDKVDPVDGVVLVDPDYLKDRKVFVTLTCAFRYGREDLDVLGLSFRKDLFIANYQAFPPTPNPPRPPTRLQERLLRKLGQHAHPFFFTIPQNLPCSVTLQPGPEDTGKACGVDFEIRAFCAKSLEEKSHKRNSVRLVIRKVQFAPEKPGPQPSAETTRHFLMSDRSLHLEASLDKELYYHGEPLNVNVHVTNNSTKTVKKIKVSVRQYADICLFSTAQYKCPVAQVEQDDQVSPSSTFCKVYTITPLLSNNREKRGLALDGKLKHEDTNLASSTIVKEGANKEVLGILVSYRVKVKLVVSRGGDVSVELPFVLMHPKPHDHIALPRPQSAATHPPTLLPSAVPETDAPVDTNLIEFETNYATDDDIVFEDFARLRLKGLKDEDYDDQFC
cryo-EM structure
  stoichiometry N: 2
negative-staining EM
  stoichiometry N: 3
